{
  "source": "patent US20260274979A1",
  "about": "(Genmab, published 2026)",
  "key": {"[1]": {"molecular_target": "T1, human PD-1, full-length, expressed on cells (human, UniProt Q15116 25-288)", "T1 construct": "whole, on cells; also called programmed cell death protein 1; membrane-expressed human PD-1", "T1 sequence (Q15116 25-288)": "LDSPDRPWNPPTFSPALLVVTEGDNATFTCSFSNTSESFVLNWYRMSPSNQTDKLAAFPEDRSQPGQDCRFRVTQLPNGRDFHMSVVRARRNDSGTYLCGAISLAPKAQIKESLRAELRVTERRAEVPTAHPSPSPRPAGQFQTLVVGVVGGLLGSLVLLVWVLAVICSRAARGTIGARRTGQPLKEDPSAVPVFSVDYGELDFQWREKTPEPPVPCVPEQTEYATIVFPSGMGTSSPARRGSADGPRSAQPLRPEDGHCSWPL", "experiment": "flow cytometry: 1 µg/mL biotinylated recombinant human PD-L2 on CHO-S cells transiently transfected with human PD-1; streptavidin-allophycocyanin; % of cells binding PD-L2"}, "[2]": {"molecular_target": "T1, human PD-1, full-length, expressed on …", "experiment": "competition flow cytometry: antibody titrated against 1 µg/mL biotinylated recombinant human PD-L2 on CHO-S cells transiently transfected with human PD-1; streptavidin-allophycocyanin; % of cells binding PD-L2"}, "[3]": {"molecular_target": "T1, human PD-1, full-length, expressed on …", "experiment": "cell-based or functional assay"}, "[4]": {"molecular_target": "complement protein C1q (from human serum) (human, UniProt P02745 23-245; P02746 28-253; P02747 29-245)", "sequence (P02745 23-245, chain 1 of 3)": "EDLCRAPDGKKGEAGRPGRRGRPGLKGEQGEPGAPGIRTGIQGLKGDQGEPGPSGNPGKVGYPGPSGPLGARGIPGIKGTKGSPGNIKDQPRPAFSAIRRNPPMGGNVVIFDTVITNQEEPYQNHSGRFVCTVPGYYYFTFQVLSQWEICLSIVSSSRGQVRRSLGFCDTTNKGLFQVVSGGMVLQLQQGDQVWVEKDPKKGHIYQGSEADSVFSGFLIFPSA", "sequence (P02746 28-253, chain 2 of 3)": "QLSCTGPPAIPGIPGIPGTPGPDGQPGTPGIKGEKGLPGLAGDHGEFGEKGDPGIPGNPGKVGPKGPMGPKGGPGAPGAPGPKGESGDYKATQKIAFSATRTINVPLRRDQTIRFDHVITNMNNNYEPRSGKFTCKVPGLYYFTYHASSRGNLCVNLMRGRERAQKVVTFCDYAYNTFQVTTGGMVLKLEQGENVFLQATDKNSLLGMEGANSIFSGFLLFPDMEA", "sequence (P02747 29-245, chain 3 of 3)": "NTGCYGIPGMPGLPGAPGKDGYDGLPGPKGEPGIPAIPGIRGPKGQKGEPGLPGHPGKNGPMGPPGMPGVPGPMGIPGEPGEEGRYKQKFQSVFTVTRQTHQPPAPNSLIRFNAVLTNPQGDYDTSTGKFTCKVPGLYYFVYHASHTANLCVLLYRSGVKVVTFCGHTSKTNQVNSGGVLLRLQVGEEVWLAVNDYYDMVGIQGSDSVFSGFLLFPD", "experiment": "flow cytometry: C1q from human serum on activated human CD8+ T cells pre-incubated with antibody, FITC anti-C1q"}, "[5]": {"molecular_target": "T1, human PD-1, full-length, expressed on …", "experiment": "cell-based or functional assay", "remark": "listed apart in the source"}},
  "note": "“And” between values parts separate entries of the source, which are not always exact repeats. Identical values can stand only once.",
  "data": [
    {"binder": "biotinylated recombinant human PD-L2 (ligand, UniProt Q9BQ51 20-219, looked up, biotinylated, Bought reagent; also called programmed cell death 1 ligand 2) LFTVTVPKELYIIEHGSNVTLECNFDTGSHVNLGAITASLQKVENDTSPHRERATLLEEQLPLGKASFHIPQVQVRDEGQYQCIIIYGVAWDYKYLTLKVKASYRKINTHILKVPETDEVELTCQATGYPLAEVSWPNVSVPANTSHSRTPEGLYQVTSVLRLKPPPGRNFSCVFWNTHVRELTLASIDLQSQMEPRTHP", "values": [
      {"measurement": "binding result", "setting": "[1]", "result": "binds"}
    ]},
    {"binder": "IgG1-PD1 (antibody, also called IgG1-PDI; copies: 2 + 2) heavy: QVQLVESGGGLVQPGTSLRLSCSVSGFSLYSYNMGWVRQAPGKGLEYIGIISGGTIGHYASWAKGRFTISRDTSKTTLYLQMNSLTTEDTATYFCARAFYDDYDYNVWGPGTLVTVSSASTKGPSVFPLAPSSKSTSGGTAALGCLVKDYFPEPVTVSWNSGALTSGVHTFPAVLQSSGLYSLSSVVTVPSSSLGTQTYICNVNHKPSNTKVDKRVEPKSCDKTHTCPPCPAPEFERGPSVFLFPPKPKDTLMISRTPEVTCVVVDVSHEDPEVKFNWYVDGVEVHNAKTKPREEQYNSTYRVVSVLTVLHQDWLNGKEYKCKVSNKALPAPIEKTISKAKGQPREPQVYTLPPSREEMTKNQVSLTCLVKGFYPSDIAVEWESNGQPENNYKTTPPVLDSDGSFFLYSKLTVDKSRWQQGNVFSCSVMHEALHNHYTQKSLSLSPG light: AIQLTQSPSSLSASVGGTVTITCQSSQSVYGNNQLSWYQQKPGQPPKLLIYQASKLETGVPSRFRGSGSGTQFTLTISSLQSEDFATYYCAGGYSSSSDTTFGGGTEVVVKRTVAAPSVFIFPPSDEQLKSGTASVVCLLNNFYPREAKVQWKVDNALQSGNSQESVTEQDSKDSTYSLSSTLTLSKADYEKHKVYACEVTHQGLSSPVTKSFNRGEC", "values": [
      {"measurement": "IC50 (read off the curve)", "setting": "[2]", "result": "~0.9", "unit": "µg/mL"},
      {"measurement": "Average EC50, CD8+ T-cell expansion index in the antigen-specific proliferation assay", "setting": "[3]", "result": "0.0124 µg/mL and 0.0837 nM"},
      {"measurement": "binding result", "setting": "[4]", "result": "no binding (tested: antibody up to 30 µg/mL; 20% human serum)"},
      {"measurement": "EC50 of PD-1/PD-L1 checkpoint blockade (luminescence, cell-based PD-1/PD-L1 blockade reporter assay)", "setting": "[5]", "result": "0.165 µg/mL and 1.12 nM"}
    ]}
  ]
}
